The chains are these.
B1: MATN2 (parent)
chain: TDDSYSCHCLKGFTLNPDKKTCRR
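Further: lentivirally expressed fusions sorted by FACS into six bins by GFP to DsRed ratio, PSI derived from sequencing read proportions per bin multiplied by bin number.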

The variants in this data set derive from B1. Description: protein stability index of a GFP-peptide fusion (GPS, HEK-293T) (PSI 1-6); higher = more stable. Particulars: c terminus: a fixed tail appended.
In the case of TDDSYSCHCLKGFTLTPDKKTCRR [N16T], the protein stability index came to 1.91. Turning to TDDSYSCHCLKGFTLQPDKKTCRR [N16Q], the protein stability index is 1.56. For TDDSYSCHCLKGFTLRPDKKTCRR [N16R], the protein stability index was found to be 2.75. For the variant TDDSYSCHCLKGFTLIPDKKTCRR [N16I], the protein stability index is 2.89. Take TDDSYSCHCLKGFTLAPDKKTCRR [N16A]: the protein stability index came out at 2.68. Turning to TDDSYSCHCLKGFTLEPDKKTCRR [N16E], the protein stability index was determined as 2.06.

Consider TDDSYSCHCLKGFTLYPDKKTCRR [N16Y], for which the protein stability index worked out at 2.4. Regarding TDDSYSCHCLKGFTLMPDKKTCRR [N16M], the protein stability index is 2.65.

In the case of TDDSYSCHCLKGFTLVPDKKTCRR [N16V], the protein stability index worked out at 2.56.

Take TDDSYSCHCLKGFTLDPDKKTCRR [N16D]: the protein stability index amounted to 2.17. For TDDSYSCHCLKGFTLHPDKKTCRR [N16H], the protein stability index came out at 2.3. Turning to TDDSYSCHCLKGFTLFPDKKTCRR [N16F], the protein stability index was determined as 1.8. On to TDDSYSCHCLKGFTLWPDKKTCRR [N16W], for which the protein stability index is 1.6. Regarding TDDSYSCHCLKGFTLSPDKKTCRR [N16S], the protein stability index came out at 2.24. Turning to TDDSYSCHCLKGFTLCPDKKTCRR [N16C], the protein stability index stood at 2.97. Turning to TDDSYSCHCLKGFTLLPDKKTCRR [N16L], the protein stability index was 2.24. In the case of TDDSYSCHCLKGFTLGPDKKTCRR [N16G] it was 2.23; in that of TDDSYSCHCLKGFTLPPDKKTCRR [N16P], 2.85; in that of TDDSYSCHCLKGFTLKPDKKTCRR [N16K], 2.33.

For TDDSYSCHCLKGFTHNPDKKTCRR [L15H], the protein stability index stood at 1.97. Take TDDSYSCHCLKGFTANPDKKTCRR [L15A]: the protein stability index stood at 2.45. In the case of TDDSYSCHCLKGFTMNPDKKTCRR [L15M] it was 2.38; in that of TDDSYSCHCLKGFTGNPDKKTCRR [L15G], 1.74; in that of TDDSYSCHCLKGFTVNPDKKTCRR [L15V], 2.55. For the variant TDDSYSCHCLKGFTQNPDKKTCRR [L15Q], the protein stability index was found to be 2.8. To TDDSYSCHCLKGFTKNPDKKTCRR [L15K] belongs 2.64; to TDDSYSCHCLKGFTENPDKKTCRR [L15E], 2.58. In the case of TDDSYSCHCLKGFTWNPDKKTCRR [L15W] it was 2.48; in that of TDDSYSCHCLKGFTCNPDKKTCRR [L15C], 2.9; in that of TDDSYSCHCLKGFTSNPDKKTCRR [L15S], 2.17. In the case of TDDSYSCHCLKGFTFNPDKKTCRR [L15F], the protein stability index was determined as 2.86.

In the case of TDDSYSCHCLKGFTNNPDKKTCRR [L15N], the protein stability index was 2.03. In the case of TDDSYSCHCLKGFTPNPDKKTCRR [L15P] it was 2.42; in that of TDDSYSCHCLKGFTINPDKKTCRR [L15I], 2.12. In the case of TDDSYSCHCLKGFTRNPDKKTCRR [L15R] it was 2.81; in that of TDDSYSCHCLKGFTDNPDKKTCRR [L15D], 2.14. For the variant TDDSYSCHCLKGFTYNPDKKTCRR [L15Y], the protein stability index turned out to be 2.45. In the case of TDDSYSCHCLKGFTTNPDKKTCRR [L15T], the protein stability index worked out at 2.02. In the case of TDDSYSCHCLKGFSLNPDKKTCRR [T14S] it was 2.13; in that of TDDSYSCHCLKGFLLNPDKKTCRR [T14L], 2.01; in that of TDDSYSCHCLKGFQLNPDKKTCRR [T14Q], 1.67. To TDDSYSCHCLKGFVLNPDKKTCRR [T14V] belongs 3.45; to TDDSYSCHCLKGFPLNPDKKTCRR [T14P], 1.79. As for TDDSYSCHCLKGFKLNPDKKTCRR [T14K], the protein stability index is 2.16. To TDDSYSCHCLKGFRLNPDKKTCRR [T14R] belongs 2; to TDDSYSCHCLKGFILNPDKKTCRR [T14I], 2.02. Take TDDSYSCHCLKGFMLNPDKKTCRR [T14M]: the protein stability index is 1.64. In the case of TDDSYSCHCLKGFHLNPDKKTCRR [T14H], the protein stability index was determined as 2.36. For the variant TDDSYSCHCLKGFWLNPDKKTCRR [T14W], the protein stability index turned out to be 2.69. Turning to TDDSYSCHCLKGFNLNPDKKTCRR [T14N], the protein stability index worked out at 2.68. As to TDDSYSCHCLKGFYLNPDKKTCRR [T14Y], the protein stability index turned out to be 1.6.

For TDDSYSCHCLKGFTLNPAKKTCRR [D18A], the protein stability index came out at 2.11. To TDDSYSCHCLKGFTLNPHKKTCRR [D18H] belongs 2.83; to TDDSYSCHCLKGFTLNPKKKTCRR [D18K], 2.86; to TDDSYSCHCLKGFTLNPSKKTCRR [D18S], 2.27. To TDDSYSCHCLKGFTLNPNKKTCRR [D18N] belongs 2.38.

In the case of TDDSYSCHCLKGFTLNPTKKTCRR [D18T], the protein stability index was 2.24. TDDSYSCHCLKGFTLNPLKKTCRR [D18L]: the protein stability index was 2.23. With TDDSYSCHCLKGFTLNPVKKTCRR [D18V], the protein stability index turned out to be 2.42. As to TDDSYSCHCLKGFTLNPPKKTCRR [D18P], the protein stability index turned out to be 2.61. TDDSYSCHCLKGFTLNPQKKTCRR [D18Q]: the protein stability index came out at 1.97. As to TDDSYSCHCLKGFTLNPIKKTCRR [D18I], the protein stability index is 2.62. In the case of TDDSYSCHCLKGFTLNPMKKTCRR [D18M], the protein stability index stood at 2.48. In the case of TDDSYSCHCLKGFTLNPEKKTCRR [D18E] it was 1.77; in that of TDDSYSCHCLKGFTLNPGKKTCRR [D18G], 2.36. As for TDDSYSCHCLKGFTLNPWKKTCRR [D18W], the protein stability index is 2.17.

In the case of TDDSYSCHCLKGFTLNPYKKTCRR [D18Y], the protein stability index worked out at 1.95. Regarding TDDSYSCHCLKGFTLNPFKKTCRR [D18F], the protein stability index is 2.01. With TDDSYSCHCLKGFTLNPCKKTCRR [D18C], the protein stability index came to 2.57. For the variant TDDSYSCHCLKGFTLNPRKKTCRR [D18R], the protein stability index was 2.65.

As for TDDSYSCHCLKGFTLNRDKKTCRR [P17R], the protein stability index stood at 2.35. Consider TDDSYSCHCLKGFTLNYDKKTCRR [P17Y], for which the protein stability index was 2.26. Regarding TDDSYSCHCLKGFTLNTDKKTCRR [P17T], the protein stability index was 2.5. Regarding TDDSYSCHCLKGFTLNCDKKTCRR [P17C], the protein stability index was determined as 3.48. With TDDSYSCHCLKGFTLNHDKKTCRR [P17H], the protein stability index came out at 2.42.

As to TDDSYSCHCLKGFTLNQDKKTCRR [P17Q], the protein stability index came to 2.14. In the case of TDDSYSCHCLKGFTLNIDKKTCRR [P17I] it was 2.01; in that of TDDSYSCHCLKGFTLNSDKKTCRR [P17S], 2.11; in that of TDDSYSCHCLKGFTLNVDKKTCRR [P17V], 2.92. As to TDDSYSCHCLKGFTLNNDKKTCRR [P17N], the protein stability index was found to be 2.28. In the case of TDDSYSCHCLKGFTLNEDKKTCRR [P17E], the protein stability index was 2.77. TDDSYSCHCLKGFTLNGDKKTCRR [P17G]: the protein stability index was found to be 2.57. To TDDSYSCHCLKGFTLNDDKKTCRR [P17D] belongs 2.65; to TDDSYSCHCLKGFTLNFDKKTCRR [P17F], 2.3; to TDDSYSCHCLKGFTLNADKKTCRR [P17A], 2.25. With TDDSYSCHCLKGFTLNKDKKTCRR [P17K], the protein stability index was found to be 2.63. To TDDSYSCHCLKGFTLNMDKKTCRR [P17M] belongs 2.71. Take TDDSYSCHCLKGFTLNWDKKTCRR [P17W]: the protein stability index is 1.65. In the case of TDDSYSCHCLKGFTLNLDKKTCRR [P17L], the protein stability index turned out to be 2.02. On to TDDSYSCHCLKGFTLNPDCKTCRR [K19C], for which the protein stability index is 4.92. For the variant TDDSYSCHCLKGFTLNPDFKTCRR [K19F], the protein stability index came to 1.61. For TDDSYSCHCLKGFTLNPDAKTCRR [K19A], the protein stability index turned out to be 2.46. As to TDDSYSCHCLKGFTLNPDEKTCRR [K19E], the protein stability index amounted to 2.3. To TDDSYSCHCLKGFTLNPDDKTCRR [K19D] belongs 2.37.

The record behind these values is the supplement of paper PMC10567573.
